Kd data for one molecule are collected here from article PMC2954336, “Biophysical characterization of recombinant proteins: A key to higher structural genomics success” (Journal of Structural Biology, 2010).

Ends that are not written are not given here. fluorescein = fluorescein label on the N-terminus of the peptide (end-label); Me2 = dimethyl on Lys

As a reminder, the Kd is the constant that tells how readily two partners part at equilibrium. A higher Kd goes with lower affinity.

The target of this assay is WDR5 (WD repeat domain 5) (UniProt P61964 1-334). In words: fluorescence polarisation; 36 nM fluorescein-labeled peptide titrated with WDR5 from 30 nM to 30 uM; 100 mM potassium phosphate buffer pH 8, 0.01% Triton X-100; data fitted to a hyperbolic equation. Particulars: both partners purified. For orientation: In fluorescence polarisation assays a small probe gives low polarisation when free and higher when bound to something large.

B1: 11-mer fluorescein-labeled histone H3 peptide dimethylated on lysine 4 (F-H3K4Me2) (peptide)
chain: fluorescein-ARTK(Me2)QTARKST
In turn, B1 displayed an equilibrium dissociation constant (Kd) of 100 ± 9 nM.
